Changes are numbered by the printed parent chain. One block for each binder: values may come before it.
Columns and labels:
[1] = molecular target: human EGFR, C-terminal eGFP-tagged, on CHO-K1 cells (human, UniProt P00533 25-1210); test: cell-based or functional assay
[2] = molecular target: T1, human CD3 expressed on cells (Jurkat cells; human primary T cells) (human, UniProt P07766 23-207; P04234 22-171; P09693 23-182); test: flow cytometry, 25 nM, Jurkat cells
T1 construct: whole, on cells
How it was run: (§1)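 Binding readout: MFI divided by isotype-control MFI (fold over isotype), positive at ≥10. Cells were stained with 25 nM antibody, 30 min, 4° C, in PBS/2% FBS before flow cytometry.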

[3] = molecular target: T2, cynomolgus monkey CD3 expressed on cyno primary T cells (cynomolgus monkey, UniProt Q95LI5 22-198; Q95LI8 22-171; Q95LI7 23-181); test: flow cytometry, cyno primary T cells
T2 construct: whole, on cells; CD3 complex on purified cynomolgus monkey CD3 pan T cells; also called cyno CD3
How it was run: as §1

[4] = molecular target: T1, human CD3 expressed on cells (Jurkat …); test: flow cytometry, 25 nM, human primary T cells
How it was run: as §1

T2 sequence (Q95LI5 22-198, chain 1 of 3): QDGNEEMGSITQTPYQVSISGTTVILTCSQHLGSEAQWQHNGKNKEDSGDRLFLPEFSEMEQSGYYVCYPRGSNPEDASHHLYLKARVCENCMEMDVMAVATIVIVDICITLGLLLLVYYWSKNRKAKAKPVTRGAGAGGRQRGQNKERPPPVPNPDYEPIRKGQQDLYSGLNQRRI
T2 sequence (Q95LI8 22-171, chain 2 of 3): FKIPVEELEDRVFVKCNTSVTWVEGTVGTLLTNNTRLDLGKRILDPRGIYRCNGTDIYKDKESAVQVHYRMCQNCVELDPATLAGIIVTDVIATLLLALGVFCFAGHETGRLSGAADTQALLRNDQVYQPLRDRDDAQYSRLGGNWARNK
T2 sequence (Q95LI7 23-181, chain 3 of 3): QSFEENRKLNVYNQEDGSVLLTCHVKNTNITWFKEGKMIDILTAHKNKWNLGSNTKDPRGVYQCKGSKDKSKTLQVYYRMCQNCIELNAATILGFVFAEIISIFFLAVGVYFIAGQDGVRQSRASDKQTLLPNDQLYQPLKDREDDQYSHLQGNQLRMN
T1 sequence (P07766 23-207, chain 1 of 3): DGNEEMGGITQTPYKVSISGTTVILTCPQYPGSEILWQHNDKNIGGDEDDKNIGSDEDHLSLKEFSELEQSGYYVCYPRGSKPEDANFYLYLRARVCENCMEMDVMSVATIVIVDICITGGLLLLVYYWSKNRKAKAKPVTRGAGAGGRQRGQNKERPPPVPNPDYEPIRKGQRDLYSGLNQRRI
T1 sequence (P04234 22-171, chain 2 of 3): as the sequence (Q95LI8 22-171, chain 2 of 3) above, with V5I, K15N, V20I, T32S, N33D, N34I, A64T, N74S, L83V, R141H counted along it
T1 sequence (P09693 23-182, chain 3 of 3): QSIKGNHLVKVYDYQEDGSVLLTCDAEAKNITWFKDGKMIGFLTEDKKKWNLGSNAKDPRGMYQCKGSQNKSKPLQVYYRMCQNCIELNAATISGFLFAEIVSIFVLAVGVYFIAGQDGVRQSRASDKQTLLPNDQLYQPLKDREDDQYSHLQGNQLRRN

EC50 CHO-K1 EGFR Low (nM); T cell activation bioassay, luciferase [1]: 0.106 nM
EC50 CHO-K1 EGFR Med (nM); T cell activation bioassay, luciferase [1]: 0.0263 nM
B1: GOMP001_bsAb_011 (bispecific antibody, human IgG1, kappa, L234A L235A)
heavy 1: QVQLVQSGAEVKKPGASVKVSCKASGYTFTSHWMHWVRKAPGQGLEWIGEFNPSNGRTNYNEEFKSKATMTVDTSTNTAYMELSSLRSEDTAVYYCASRDYDYDGRYFDYWGQGTLVTVSSASTKGPSVFPLAPSSKSTSGGTAALGCLVADYFPEPVTVSWNSGALTSGVHTFPAVLQSSGLYSLSSVVTVPSSSLGTQTYICNVNHKPSNTKVDEKVEPKSCDKTHTCPPCPAPEAAGGPSVFLFPPKPKDTLMISRTPEVTCVVVDVSHEDPEVKFNWYVDGVEVHNAKTKPREEQYNSTYRVVSVLTVLHQDWLNGKEYKCKVSNKALPAPIEKTISKAKGQPREPQVYTLPPSREEMTDNQVSLTCLVKGFYPSDIAVEWESNGQPENNYKTTPPVLMSDGSFFLASKLTVDKSRWQQGNVFSCSVMHEALHNHYTQKSLSLSPG
light 1: RIQMTQSPSSLSASVGDRVTITCSASSSVTYMYWYQDKPGKAPKLLIYDTSNLASGVPSRFSGSGSGTDYTFTISSLQPEDIATYYCQQWSSHIFTFGQGTKVEIKRTVAAPSVFIFPPSDKQLKSGTARVVCLLNNFYPREAKVQWKVDNALQSGNSQESVTEQDSKDSTYSLSSTLTLSKADYEKHKVYACEVTHQGLSSPVTKSFNRGEC
heavy 2: EVQLVESGGGLVQPGGSLRLSCAASGFTLSSYTMNWVRYAPGKGLEWVSYISSSSRTIYYSDRVKGRFSISRDNAKNSLYLQMNSLRDEDTALYYCAREDYYDSSGFDNWGRGTLVTVSSASTKGPSVFPLAPSSKSTSGGTAALGCLVKDYFPEPVTVSWNSGALTSGVHTFPAVLQSSGLYSLSSVVTVPSSSLGTQTYICNVNHKPSNTKVDKKVEPKSCDKTHTCPPCPAPEAAGGPSVFLFPPKPKDTLMISRTPEVTCVVVDVSHEDPEVKFNWYVDGVEVHNAKTKPREEQYNSTYRVVSVLTVLHQDWLNGKEYKCKVSNKALPAPIEKTISKAKGQPRRPRVYTLPPSREEMTKNQVSLVCLVKGFYPSDIAVEWESNGQPENNYKTTPPVLDSDGSFFLYSVLTVDKSRWQQGNVFSCSVMHEALHNHYTQKSLSLSPG
light 2: DIRMTQSPSSFSASTGDRVTITCRASQGISSYLAWYQRKPGDAPKLLIYTASTLQSGVPSRFSGSGSGTDFTLTIRSLQSEDFATYYCQQYYSYPRTFGQGTKVEIKRTVAAPSVFIFPPSDEQLKSGTASVVCLLNNFYPREAKVQWKVDNALQSGNSQESVTEQDSKDSTYSLSSTLTLSKADYEKHKVYACEVTHQGLSSPVTKSFNRGEC

EC50 CHO-K1 EGFR Low (nM); T cell activation bioassay, luciferase [1]: 0.147 nM
EC50 CHO-K1 EGFR Med (nM); T cell activation bioassay, luciferase [1]: 0.0234 nM
B2: GOMP001_bsAb_012 (bispecific antibody, human IgG1, kappa, L234A L235A)
heavy 1: B1 heavy 2
light 1: B1 light 2
heavy 2: QVQLVQSGAEVKKPGASVKVSCKASGYTFTSHWMHWVRYAPGQGLEWIGEFNPSNGRTNYNEKFKSKATMTVDTSTNTAYMELSSLRSEDTAVYYCASRDYDYDGRYFDYWGRGTLVTVSSASTKGPSVFPLAPSSKSTSGGTAALGCLVKDYFPEPVTVSWNSGALTSGVHTFPAVLQSSGLYSLSSVVTVPSSSLGTQTYICNVNHKPSNTKVDKKVEPKSCDKTHTCPPCPAPEAAGGPSVFLFPPKPKDTLMISRTPEVTCVVVDVSHEDPEVKFNWYVDGVEVHNAKTKPREEQYNSTYRVVSVLTVLHQDWLNGKEYKCKVSNKALPAPIEKTISKAKGQPRRPRVYTLPPSREEMTKNQVSLVCLVKGFYPSDIAVEWESNGQPENNYKTTPPVLDSDGSFFLYSVLTVDKSRWQQGNVFSCSVMHEALHNHYTQKSLSLSPG
light 2: B1 light 1 with R1D, D37R, K41D, K122E, R130S

Binding (FOI) [2]: 62.3 FOI
Binding (FOI) [4]: 77.7 FOI
B3: mAb 257 (antibody, V domains shown)
VH: QVQLQQSGPGLVKPSQTLSLTCAISGDSVSSNYASWNWIRQSPSRGLEWLGRTYYRSKWYNDFAVSVRSRVTINADTSKNQFSLHLSSVTPEDTAIYFCAREANGRGYFYYMDVWGKGTTVTVSS
VL: EIVLTQSPDFQSVTPKEKVTITCRASQSIGSSLHWYQQKPDQSPKLLIKYASQSISGVPSRFSGSGSGTVFTLTINSLEAEDAAAYFCHQSSGSPHTFGGGTKVEIK
notes: VH/VL only; the printed VH holds a letter U
binding result [3]: no binding (tested: FOI <10 (FOI >=10 = positive); 25 nM)

Binding (FOI) [2]: 147 FOI
Binding (FOI) [4]: 113 FOI
B4: mAb 258 (antibody, V domains shown)
VH: EVQLLESGGGLVQPGGSLRLSCAASGFTFSNYAMNWVRQAPGKGLEWVSVISNSGGTRLYVDSVKGRFTISRDNSKNTLYLQMSSLRAADTAVYYCAKDAAAALYYYYFYYMDVWGKGTTVTVSS
VL: B3 VL with I55F, V70D, A85T, F87Y, G93S, S94L, H96Y, G100Q, V104L
notes: VH/VL only
binding result [3]: no binding (tested: FOI <10 (FOI >=10 = positive); 25 nM)

Binding (FOI) [2]: 61.3 FOI
Binding (FOI) [4]: 88.8 FOI
B5: mAb 267 (antibody, V domains shown)
VH: B3 VH with V29I, R68K, V71I, T72I, A75P, K79R, S87N, F98Y
VL: B3 VL with S65R, V70D
notes: VH/VL only
binding result [3]: no binding (tested: FOI <10 (FOI >=10 = positive); 25 nM)

Binding (FOI) [2]: 85 FOI
Binding (FOI) [4]: 71.9 FOI
B6: mAb 266 (antibody, V domains shown)
VH: B3 VH with N61I, R68K, V71L, S87R
VL: B3 VL
notes: VH/VL only
binding result [3]: no binding (tested: FOI <10 (FOI >=10 = positive); 25 nM)

Binding (FOI) [2]: 156 FOI
Binding (FOI) [4]: 149 FOI
B7: mAb 276 (antibody, V domains shown)
VH: EVQLVESGGGLVQPGGSLRLSCAASGIPFSTYSMNWVRQAPGKGLEWVSYISGSSRTIYYADSVKGRFTISRDNAKKLLFLQMNSLRDEDTAVYYCAREGDYYDSSGWAYWGQGTLVTVSS
VL: DIQMTQSPSSLSASVGDRVTITCRASQNIYKYLNWYEQKPGRAPKLLIYTTSNLQSGVPSRFSGSGSGTAFTLIISSLQPEDFATYYCQQSYGSPYTFGQGTKLEIK
notes: VH/VL only
binding result [3]: no binding (tested: FOI <10 (FOI >=10 = positive); 25 nM)

Binding (FOI) [2]: 174 FOI
Binding (FOI) [4]: 220 FOI
B8: mAb 264 (antibody, V domains shown)
VH: EVQLLESGGGLVQPGGSLRLSCVASGFTFRSSSMTWVRQAPGKGLEWVSGIRGSGGRTYDAESVKGRFTISRDNSKNTLYLQMNSLRAEDTAEYYCAKLYDYYNDYMDVWGKGTTVTVSS
VL: SYELTQPLSVSVALGQTARITCGGNNIGSKNVHWYQQKPGQAPVLVIYRDSNRPSGIPERFSGSNSGNTATLTISRAQAGDEADYYCQVWDSSTAVFGGGTQLTAL
notes: VH/VL only
binding result [3]: no binding (tested: FOI <10 (FOI >=10 = positive); 25 nM)

Binding (FOI) [2]: 226 FOI
Binding (FOI) [4]: 209 FOI
B9: mAb 284 (antibody, V domains shown)
VH: EVQLLESGGGLVQPGGSLRLSCAASGFTFSSYAMSWVRQAPGKGLEWVSAISGSSGRTYYTDSVKGRFTISRDNSKNTLSLQMNSLRAEDTAVYYCAKKYSYYYYYMDVWGKGTTVTVSS
VL: B8 VL with R19K
notes: VH/VL only
binding result [3]: no binding (tested: FOI <10 (FOI >=10 = positive); 25 nM)

Binding (FOI) [2]: 188 FOI
Binding (FOI) [4]: 248 FOI
B10: mAb 263 (antibody, V domains shown)
VH: EVQLLESGGGLVQPGGSLRLSCTPSGITFNNYAMTWVRQAPGKGLEWVSGISVSGGSTYYADSVMGRFTISRDSSKTLYLQMNSLRAEDTAVYYCAKFHSHYYYYMDVWGKGTTVTVSS
VL: B8 VL with N31D, S92R, S93R
notes: VH/VL only
binding result [3]: no binding (tested: FOI <10 (FOI >=10 = positive); 25 nM)

Binding (FOI) [2]: 188 FOI
Binding (FOI) [4]: 229 FOI
B11: mAb 261 (antibody, V domains shown)
VH: EVQLLESGGGFMQPGGSLRLSCAVSGFTFRTSSMAWVRQAPGKGLEWVSGIRGSGGRTYDAESVKGRFTISRDISKNTLYLQMNNLRAEDTAEYYCAKLYDYYNDFMDVWGKGTTVIVSA
VL: B8 VL
notes: VH/VL only
binding result [3]: no binding (tested: FOI <10 (FOI >=10 = positive); 25 nM)

Binding (FOI) [2]: 169 FOI
Binding (FOI) [4]: 214 FOI
B12: mAb 259 (antibody, V domains shown)
VH: B8 VH with Q3L, V23A, N74I, L86V
VL: B8 VL
notes: VH/VL only
binding result [3]: no binding (tested: FOI <10 (FOI >=10 = positive); 25 nM)

Binding (FOI) [2]: 165 FOI
Binding (FOI) [4]: 219 FOI
B13: mAb 262 (antibody, V domains shown)
VH: B8 VH with Q3R, V23A, T35A, A40D, S49T, E62D
VL: B8 VL
notes: VH/VL only
binding result [3]: no binding (tested: FOI <10 (FOI >=10 = positive); 25 nM)

Binding (FOI) [2]: 178 FOI
Binding (FOI) [4]: 219 FOI
B14: mAb 260 (antibody, V domains shown)
VH: B8 VH with T35A, T69I, N74T, A88G, Y95F
VL: B8 VL
notes: VH/VL only
binding result [3]: no binding (tested: FOI <10 (FOI >=10 = positive); 25 nM)

Binding (FOI) [2]: 216 FOI
Binding (FOI) [4]: 128 FOI
B15: mAb 283 (antibody, V domains shown)
VH: QVHLVQSGAEVKKPGASVRVSCKASGYTFTGYYIHWLRQAPGQGLEWLGWINPNSGGTNYSQKFRGRVTMTRDTSISTAYMELSRLRSDDTAVYYCARDKVWEQQLVGGFDYWGQGTLVTVSS
VL: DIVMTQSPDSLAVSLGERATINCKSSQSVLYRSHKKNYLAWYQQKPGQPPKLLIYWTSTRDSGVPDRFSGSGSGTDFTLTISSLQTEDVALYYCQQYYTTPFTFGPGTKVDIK
notes: VH/VL only
binding result [3]: no binding (tested: FOI <10 (FOI >=10 = positive); 25 nM)
